Target: T1, 10th and 11th cadherin repeat domains of the Plutella xylostella cadherin (PxCR10–11), GST-tagged (Plutella xylostella)
T1 construct: Plutella xylostella cadherin, 10th and 11th CR domains, residues 1258–1602 aa; also called truncated recombinant P. xylostella cadherin; source: Escherichia coli expression system, purified (GST-Sefinose prepacked gravity column)
Test: BLI; Octet Red 96; GST-tagged PxCR10–11 loaded onto anti-GST biosensors; toxin 38.5 to 576.9 nM in solution; 400 s association, 400 s dissociation; 10 mM GSH, 50 mM Tris, pH 8.0; 1:1 binding model
Settings: both partners purified

B1: Bacillus thuringiensis insecticidal protein (Bt toxin) Cry2Ab30 (natural protein)
chain: MNSVLNSGRTTICDAYNVAAHDPFSFQHKSLDTVQKEWTEWKKNNHSLYLDPIVGTVASFLLKKVGSLVGKRILSELRNLIFPSGSTNLMQDILRETEKFLNQRLNTDTLARVNAELTGLQANVEEFNRQVDNFLNPNRNAVPLSITSSVNTMQQLFLNRLPQFQMQGYQLLLLPLFAQAANLHLSFIRDVILNADEWGISAATLRTYRDYLKNYTRDYSNYCINTYQSAFKGLNTRLHDMLEFRTYMFLNVFEYVSIWSLFKYQSLLVSSGANLYASGSGPQQTQSFTSQDWPFLYSLFQVNSNYVLNGFSGARLSNTFPNIVGLPGSTTTHALLAARVNYSGGISSGDIGASPFNQNFNCSTFLPPLLTPFVRSWLDSGSDREGVATVTNWQTESFETTLGLRSGAFTARGNSNYFPDYFIRNISGVPLVVRNEDLRRPLHYNEIRNIASPSGTPGGARAYMVSVHNRKNNIHAVHENGSMIHLAPNDYTGFTISPIHATQVNNQTRTFISEKFGNQGDSLRFEQNNTTARYTLRGNGNSYNLYLRVSSIGNSTIRVTINGRVYTATNVNTTTNNDGVNDNGARFSDINIGNVVASSNSDVPLDINVTLNSGTQFDLMNIMLVPTNISPLY
Kd: 28.7 nM

From paper PMC6783867, “Synthesis and Characterization of Cry2Ab–AVM Bioconjugate: Enhanced Affinity to Binding Proteins and Insecticidal Activity” (Toxins, 2019)
